This assay has as its target T1, BMP-9 (UniProt Q9UK05).
T1 sequence (looked up): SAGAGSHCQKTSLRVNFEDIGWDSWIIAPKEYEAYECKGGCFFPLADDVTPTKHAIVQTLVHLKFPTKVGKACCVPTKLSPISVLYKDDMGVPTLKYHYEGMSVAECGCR
Briefly: cell-based or functional assay.

A value given as a limit tells only on which side of the number the result lay.

“P1193 (hActRIIB L33Y F58E, 10 aa linker, IgG1-DL Fc) (Fc fusion)” had a BMP-9 IC50 (nM), BMP-reporter HepG2 cell-based assay of 485 nM and a fold decrease of inhibition potency on BMP-9, BMP-reporter HepG2 assay above 100 fold.
The like results for “P1198 (hActRIIB L33Q F58E, 3 aa GGG linker, IgG1-DL Fc) (Fc fusion)” were, in that order, 667 nM and above 100 fold.

Source of the values: patent US20260139032A1.
